Here are results for 4 molecules from patent publication US20110263454A1, “Methods of Identifying Functional Characteristics of Promoters, Transcription Modifying Proteins and Transcription Modulating Agents” (Salk Institute for Biological Studies, priority 2008, published 2011).

In one assay the test system is mUCP1 promoter. Nature of the assay: NHR-promoter luciferase screen, mUCP1 promoter. It counts as cell-based, mouse. As to conditions: for Luc. act., normalized to lacZ / Normalized Luc. act., normalized to control: mUCP1 promoter reporter, co-transfected HR, with or without its ligand; for Normalized Luc. act., normalized to control: relative to control; for luciferase activity normalized to lacZ activity and to a control, mUCP!: mUCP! promoter-luciferase, CV-1 cells, NHR +/- ligand, control = 1.00. The procedure, abridged:
(§1)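 CV-1 cells were co-transfected with 50 ng NHR (homodimer or NHR/RXR heterodimer), 100 ng promoter-luciferase construct and 50 ng LacZ. Luciferase was normalized to LacZ and to a no-NHR/no-ligand control.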

The next assay relates to hIFNg promoter. Nature of the assay: NHR-promoter luciferase screen, hIFNg promoter. It counts as cell-based, human. The note with it: for Luc. act., normalized to lacZ / Normalized Luc. act., normalized to control: IFNg promoter, HR component without or with ligand; for hIFNg promoter reporter activity: transcription factor +/- ligand, control = 1.00. The procedure, abridged: as §1

The next assay relates to mGhrelin promoter. Nature of the assay: NHR-promoter luciferase screen, mGhrelin promoter. It counts as cell-based, mouse. The note with it: for Luc. act., normalized to lacZ / Normalized Luc. act., normalized to control: Table 8, mGhrelin; for Results of assays of transcription factor (+/- ligand) with mGhrelin: Table 6d, luciferase activity relative to control (control = 1.00). The procedure, abridged:
as §1

The subject of a further assay is hPPARg2 promoter. Nature of the assay: NHR-promoter luciferase screen, hPPARg2 promoter. It counts as cell-based, human. As to conditions: for Luc. act., normalized to lacZ / Normalized Luc. act., normalized to control: PPARG2 promoter, hormone receptor with or without its ligand; for Normalized Luc. act., normalized to control: relative to control; for Results of assays of transcription factor (+/- ligand) with hPPARg2: Table 6d, luciferase activity relative to control (control = 1.00). The procedure, abridged: as §1

In the next assay the test system is MCP-1 promoter. Nature of the assay: NHR-promoter luciferase screen, MCP-1 promoter. It counts as cell-based. As to conditions: for Normalized Luc. act., normalized to control / Luc. act., normalized to lacZ: MCP-1 promoter reporter; for Normalized Luc. act., normalized to control: HR without or with its ligand, relative to control; for Luc. act., normalized to lacZ: hormone receptor (HR) without or with its ligand; for mMCP-1 promoter reporter activity: transcription factor +/- ligand, control = 1.00. The essentials: as §1

The next assay concerns hG6PD promoter. Nature of the assay: NHR-promoter luciferase screen, hG6PD promoter. As to conditions: for Luc. act., normalized to lacZ / Normalized Luc. act., normalized to control: G6PD promoter reporter, co-transfected HR, without or with its ligand; for Normalized Luc. act., normalized to control: relative to control; for luciferase activity normalized to lacZ activity and to a control, hG6PD: hG6PD promoter-luciferase, CV-1 cells, NHR +/- ligand, control = 1.00. It counts as cell-based, human. The essentials: as §1

B1: HNF4g: Hepatocyte Nuclear Factor γ (NR2A2), cDNA driver (protein, UniProt Q14541 1-408, looked up)
Hepatocyte nuclear factor …: MNTTDNGVNCLCAICGDRATGKHYGASSCDGCKGFFRRSIRKSHVYSCRFSRQCVVDKDKRNQCRYCRLRKCFRAGMKKEAVQNERDRISTRRSTFDGSNIPSINTLAQAEVRSRQISVSSPGSSTDINVKKIASIGDVCESMKQQLLVLVEWAKYIPAFCELPLDDQVALLRAHAGEHLLLGATKRSMMYKDILLLGNNYVIHRNSCEVEISRVANRVLDELVRPFQEIQIDDNEYACLKAIVFFDPDAKGLSDPVKIKNMRFQVQIGLEDYINDRQYDSRGRFGELLLLLPTLQSITWQMIEQIQFVKLFGMVKIDNLLQEMLLGGASNDGSHLHHPMHPHLSQDPLTGQTILLGPMSTLVHADQISTPETPLPSPPQGSGQEQYKIAANQASVISHQHLSKQKQL
On to B1, for which, in the assay with mUCP1 promoter, the “Luc. act., normalized to lacZ” value came to 3.5; the “Normalized Luc. act., normalized to control” value was 0.8; the “luciferase activity normalized to lacZ activity and to a control, mUCP!” value (“luciferase activity normalized … mUCP!” for short) came to 0.79. Further, in the assay with hIFNg promoter, the “Luc. act., normalized to lacZ” value was determined as 13.3; the “Normalized Luc. act., normalized to control” value turned out to be 0.8; the “hIFNg promoter reporter activity” value came out at 0.83. Moreover, in the assay with mGhrelin promoter, the “Luc. act., normalized to lacZ” value turned out to be 58.1; the “Normalized Luc. act., normalized to control” value was 1.1; the “Results of assays of transcription factor (+/- ligand) with mGhrelin” value (shortened to “Results of assays … with mGhrelin”) is 1.11. Besides, in the assay with hPPARg2 promoter, the “Luc. act., normalized to lacZ” value is recorded as 1.5; the “Normalized Luc. act., normalized to control” value is reported as 0.8; the “Results of assays of transcription factor (+/- ligand) with hPPARg2” value (“Results of assays … with hPPARg2” for short) is listed as 0.76. Besides, in the assay with MCP-1 promoter, the “Normalized Luc. act., normalized to control” value was 1.2; the “Luc. act., normalized to lacZ” value came out at 128.6; the “mMCP-1 promoter reporter activity” value is 1.20. Further, in the assay on hG6PD promoter, the “Luc. act., normalized to lacZ” value amounted to 42.1; the “Normalized Luc. act., normalized to control” value came out at 1.1; the “luciferase activity normalized to lacZ activity and to a control, hG6PD” value (shortened to “luciferase activity normalized … hG6PD”) amounted to 1.13.

B2: TR4: Testicular Orphan Nuclear Receptor 4 (NR2C2), cDNA driver (protein, UniProt P49116 1-596, looked up)
Nuclear receptor subfamily 2 …: MTSPSPRIQIISTDSAVASPQRIQIVTDQQTGQKIQIVTAVDASGSPKQQFILTSPDGAGTGKVILASPETSSAKQLIFTTSDNLVPGRIQIVTDSASVERLLGKTDVQRPQVVEYCVVCGDKASGRHYGAVSCEGCKGFFKRSVRKNLTYSCRSNQDCIINKHHRNRCQFCRLKKCLEMGMKMESVQSERKPFDVQREKPSNCAASTEKIYIRKDLRSPLIATPTFVADKDGARQTGLLDPGMLVNIQQPLIREDGTVLLATDSKAETSQGALGTLANVVTSLANLSESLNNGDTSEIQPEDQSASEITRAFDTLAKALNTTDSSSSPSLADGIDTSGGGSIHVISRDQSTPIIEVEGPLLSDTHVTFKLTMPSPMPEYLNVHYICESASRLLFLSMHWARSIPAFQALGQDCNTSLVRACWNELFTLGLAQCAQVMSLSTILAAIVNHLQNSIQEDKLSGDRIKQVMEHIWKLQEFCNSMAKLDIDGYEYAYLKAIVLFSPDHPGLTSTSQIEKFQEKAQMELQDYVQKTYSEDTYRLARILVRLPALRLMSSNITEELFFTGLIGNVSIDSIIPYILKMETAEYNGQITGASL
For B2, in the assay with mUCP1 promoter, the “Luc. act., normalized to lacZ” value was determined as 26.4; the “Normalized Luc. act., normalized to control” value was found to be 5.9; the “luciferase activity normalized … mUCP!” value came to 5.94. In the assay on hIFNg promoter, the “Luc. act., normalized to lacZ” value is 42.5; the “Normalized Luc. act., normalized to control” value is 2.7; the “hIFNg promoter reporter activity” value worked out at 2.67. For the same molecule, in the assay on mGhrelin promoter, the “Luc. act., normalized to lacZ” value was 273.5; the “Normalized Luc. act., normalized to control” value worked out at 5.2; the “Results of assays … with mGhrelin” value was 5.23. Besides, in the assay on mGhrelin promoter (mGhrelin promoter-luciferase, NHR +/- ligand, control = 1.0), the “luciferase/LacZ, mGhrelin (selected results)” value is recorded as 5.2. In addition, in the assay on hPPARg2 promoter, the “Luc. act., normalized to lacZ” value is given as 3.3; the “Normalized Luc. act., normalized to control” value turned out to be 1.6; the “Results of assays … with hPPARg2” value is 1.65. Moreover, in the assay with MCP-1 promoter, the “Normalized Luc. act., normalized to control” value was found to be 2.1; the “Luc. act., normalized to lacZ” value was determined as 229.9; the “mMCP-1 promoter reporter activity” value is listed as 2.15. Further, in the assay with hG6PD promoter, the “Luc. act., normalized to lacZ” value was 66.2; the “Normalized Luc. act., normalized to control” value is recorded as 1.8; the “luciferase activity normalized … hG6PD” value was determined as 1.77.

B3: TR2: Testicular Orphan Nuclear Receptor 2 (NR2C1), cDNA driver (protein, UniProt P13056 1-603, looked up)
Nuclear receptor subfamily 2 …: MATIEEIAHQIIEQQMGEIVTEQQTGQKIQIVTALDHNTQGKQFILTNHDGSTPSKVILARQDSTPGKVFLTTPDAAGVNQLFFTTPDLSAQHLQLLTDNSPDQGPNKVFDLCVVCGDKASGRHYGAVTCEGCKGFFKRSIRKNLVYSCRGSKDCIINKHHRNRCQYCRLQRCIAFGMKQDSVQCERKPIEVSREKSSNCAASTEKIYIRKDLRSPLTATPTFVTDSESTRSTGLLDSGMFMNIHPSGVKTESAVLMTSDKAESCQGDLSTLANVVTSLANLGKTKDLSQNSNEMSMIESLSNDDTSLCEFQEMQTNGDVSRAFDTLAKALNPGESTACQSSVAGMEGSVHLITGDSSINYTEKEGPLLSDSHVAFRLTMPSPMPEYLNVHYIGESASRLLFLSMHWALSIPSFQALGQENSISLVKAYWNELFTLGLAQCWQVMNVATILATFVNCLHNSLQQDKMSTERRKLLMEHIFKLQEFCNSMVKLCIDGYEYAYLKAIVLFSPDHPSLENMEQIEKFQEKAYVEFQDYITKTYPDDTYRLSRLLLRLPALRLMNATITEELFFKGLIGNIRIDSVIPHILKMEPADYNSQIIGHSI
For B3, in the assay with mUCP1 promoter, the “Luc. act., normalized to lacZ” value is on record as 8.1; the “Normalized Luc. act., normalized to control” value was 1.8; the “luciferase activity normalized … mUCP!” value stood at 1.82. Moreover, in the assay on hIFNg promoter, the “Luc. act., normalized to lacZ” value came out at 13.6; the “Normalized Luc. act., normalized to control” value was 0.9; the “hIFNg promoter reporter activity” value is 0.85. Further, in the assay on mGhrelin promoter, the “Luc. act., normalized to lacZ” value worked out at 63.2; the “Normalized Luc. act., normalized to control” value is reported as 1.2; the “Results of assays … with mGhrelin” value turned out to be 1.21. In addition, in the assay with hPPARg2 promoter, the “Luc. act., normalized to lacZ” value is listed as 1.9; the “Normalized Luc. act., normalized to control” value is 1.0; the “Results of assays … with hPPARg2” value was 0.95. For the same molecule, in the assay on MCP-1 promoter, the “Normalized Luc. act., normalized to control” value turned out to be 2.9; the “Luc. act., normalized to lacZ” value stood at 311.2; the “mMCP-1 promoter reporter activity” value was 2.91. In addition, in the assay with hG6PD promoter, the “Luc. act., normalized to lacZ” value was found to be 45.5; the “Normalized Luc. act., normalized to control” value was found to be 1.2; the “luciferase activity normalized … hG6PD” value was 1.22.

B4: Erb: Estrogen Receptor β (NR3A2, ERb), cDNA driver (protein, UniProt Q92731 1-530, looked up)
Estrogen receptor beta: MDIKNSPSSLNSPSSYNCSQSILPLEHGSIYIPSSYVDSHHEYPAMTFYSPAVMNYSIPSNVTNLEGGPGRQTTSPNVLWPTPGHLSPLVVHRQLSHLYAEPQKSPWCEARSLEHTLPVNRETLKRKVSGNRCASPVTGPGSKRDAHFCAVCSDYASGYHYGVWSCEGCKAFFKRSIQGHNDYICPATNQCTIDKNRRKSCQACRLRKCYEVGMVKCGSRRERCGYRLVRRQRSADEQLHCAGKAKRSGGHAPRVRELLLDALSPEQLVLTLLEAEPPHVLISRPSAPFTEASMMMSLTKLADKELVHMISWAKKIPGFVELSLFDQVRLLESCWMEVLMMGLMWRSIDHPGKLIFAPDLVLDRDEGKCVEGILEIFDMLLATTSRFRELKLQHKEYLCVKAMILLNSSMYPLVTATQDADSSRKLAHLLNAVTDALVWVIAKSGISSQQQSMRLANLLMLLSHVRHASNKGMEHLLNMKCKNVVPVYDLLLEMLNAHVLRGCKSSITGSECSPAEDSKSKEGSQNPQSQ
Regarding B4, in the assay on mUCP1 promoter, the “Luc. act., normalized to lacZ” value turned out to be 3.3; the “Normalized Luc. act., normalized to control” value was 0.8; the “luciferase activity normalized … mUCP!” value was found to be 0.75. Moreover, in the assay with hIFNg promoter, the “Luc. act., normalized to lacZ” value is 22.0; the “Normalized Luc. act., normalized to control” value was determined as 1.4; the “hIFNg promoter reporter activity” value amounted to 1.39. Further, in the assay with mGhrelin promoter, the “Luc. act., normalized to lacZ” value was determined as 47.5; the “Normalized Luc. act., normalized to control” value worked out at 0.9; the “Results of assays … with mGhrelin” value is listed as 0.91. Besides, in the assay with hPPARg2 promoter, the “Luc. act., normalized to lacZ” value turned out to be 2.3; the “Normalized Luc. act., normalized to control” value is listed as 1.1; the “Results of assays … with hPPARg2” value is recorded as 1.13. In addition, in the assay on MCP-1 promoter, the “Normalized Luc. act., normalized to control” value was 1.4; the “Luc. act., normalized to lacZ” value is listed as 146.9; the “mMCP-1 promoter reporter activity” value is given as 1.37. Moreover, in the assay with hG6PD promoter, the “Luc. act., normalized to lacZ” value is recorded as 45.3; the “Normalized Luc. act., normalized to control” value came out at 1.2; the “luciferase activity normalized … hG6PD” value worked out at 1.21.
